In patent publication US6156727A, “Anti-atherosclerotic peptides and a transgenic mouse model of antherosclerosis” (UAB Research Foundation, priority 1997, dated 2000):
Several values for one entry are separate records, joined by “and”; a condition that tells them apart may be missing. Equal values may be shown once. Read-outs that look alike come from different tables or passages of the source. No end group written: not given here.

What was measured:
[1] = tested on: spontaneous lesions in apoE-knockout mice; test: IP administration of modified 18A peptide to apoE-knockout mice on normal diet; type: in vivo; details: for aortal lesions: IP administration, apoE-knockout mice
Experimental: Similar experiments were completed in apoE-knockout animals. The peptide used was a modified 18A of the present invention with the sequence:
This peptide was administered to animals on a normal diet, to determine if the intraperitoneal administration of this peptide would inhibit lesions that these animals produce spontaneously, even without high fat diet administration. The lesions in this case is different than that produced after sixteen weeks of high fat diet administration in 57BL6/J mice.

[2] = tested on: plasma cholesterol in B16/SJL mice; test: Effect of peptides on total cholesterol, high fat diet administered to B16/SJL mice; type: in vivo
Experimental: Peptide injections (50 μg/animal/day for 16 weeks).

[3] = tested on: diet administered atherosclerosis in peptide transgenic mice; test: In vitro fertilized peptide-transgenic mice on high fat diet for 16 weeks (plasma peptide, cholesterol, aortic cross-section); type: in vivo; details: transgenic IVF mice, retroorbital bleed, Western analysis; some of the mice
From the text: The peptide gene was then cloned into the MunI site of the apoE-promoter that is specific for expression of the peptide/protein in the liver. SalI-Spel fragment of the apoE promoter to which the peptide gene was subcloned was microinjected into mouse oocytes to produce transgenic mice. […] Further transgenic mice were generated from these two founders and analysed for the presence of peptide gene.
This produced a number of animals with the peptide gene present in different amounts. Western analysis using the antibody produced for the chemically synthesized peptide indicated the presence of peptide in different amounts (FIG. 4).
The animals were then administered TeckLad diet that is known to produce foam cell lesions in 57BL6/J mice when administered for sixteen weeks. At the end of sixteenth week, mice were sacrificed, plasma was collected and the hearts were harvested. The aortal cross-sections were stained with Oil Red O that stains lipid laden fatty streaks. The plasma samples were subjected to lipoprotein analysis. The results of plasma analysis indicated clearly that the profiles were different from each other and some of the profiles looked very similar to the control mice on the normal diet, with the cholesterol values around ≤100 mg/dl.
Blood from the in vitro fertilized animals were obtained from the retroorbital bleed and red cells were separated by centrifugation. […]

[4] = IP administration of radiolabelled 18A-Pro-18A and human apo A-I in mice, plasma radioactivity; type: in vivo, 57BL6/J mice; details: for amount of the injected dosage present in the blood: 4 or 5 hours following IP injection, based on specific activity; for Total plasma cpm as a percent of the injected cpm: IP, radiolabelled, 4 or 5 hours (respectively) after injection, plasma volume assumed 4.2% of body weight; for presence of the radiolabel in isolated lipoprotein fractions (FPLC): after IP injection; for form of radioactivity in the plasma (TCA precipitation and FPLC analysis): early time points (up to 5 hours)
Experimental: Since the peptide administration experiments involves intraperitoneal administration of peptide, the effect of administration of radiolabelled peptide and human apo A-I was compared in mice. Briefly, approximately 200,000 cpm of either the peptide (4.4 μg) or human apo A-I (3.0 μg) were administered intraperitoneally into 57BL6/J mice and blood samples were taken by retro-orbital bleeding from anesthetized animals. The final time point was taken from the axilla of anesthetized animals. Radioactivity was measured in plasma sample, and was calculated as total plasma cpm, assuming plasma volume as 4.2% of the body weight.
Based on the specific activity of the radiolabelled materials, approximately […] of the injected dosage was present in the blood after 4 or 5 hours following the injection. […] It should be noted that the major lipoprotein in 57BL6/J mice is HDL.
Thus, intraperitoneal administration allows for the peptide or human apoA-I to be released into plasma gradually. Intraperitoneal administration of the peptide is therefore feasible

[5] = tested on: diet-induced lipid accumulation in C57 BL6/J mice; test: IP administration of peptide for sixteen weeks to high fat diet administered C57BL 6/J mice (aortal histology, total cholesterol, mortality); type: in vivo
Experimental: C57BL mice were administered a high cholesterol diet (modified Thomas Hartcroft) and were divided into two groups. Group I received intraperitoneal administration of saline each day for 16 weeks. Group II received intraperitoneal administration of the peptide solution (μg/mice/day) for 16 weeks. At the end of the experiment, mice were sacrificed and aortas were harvested, cross-sectioned and stained with Oil Red O. FIGS. 1A-1F show the cross sections of the aortas from animals 1 and 2.
A dosage of peptide to be injected was selected based on the in vivo studies conducted using 18A to inhibit the LPS-induced toxicity in mice (Levine, et al., PNAS, 1993, 90:12040-12044). In these experiments, […] of the peptide 18A was used per mouse to inhibit endotoxin-induced death of mice. Because of the solubility of the peptide 37pA, and since it was desirable to maintain the same volume used by Levine et al, […] of peptide per mouse per day was injected.
Peptide 18A-Pro-18A dissolved in sterile saline was administered IP everyday for sixteen weeks 11 animals on high fat diet. Control animals on high fat diet were administered saline for sixteen weeks. At the end of sixteen weeks, animals were sacrificed and histology of hearts were done. The mortality in both the groups were similar (only three in each groups) indicating no toxicity due to peptide 18A-Pro-18A administration.

[6] = Bilayer stabilization (transition temperature of DOPE); type: physicochemical
From the text: (§1) 2. The amphipathic helical peptide 18A-Pro-18A is the closest mimic of human apoA-I as a bilayer stabilizer. Bilayer stabilizers increase the transition temperature of DOPE whereas destabilizing molecules decrease the transition temperature. Such a destabilization can cause the inverted phase lipids (or hexagonal phase). Formation of this by the lytic peptide can be inhibited by human apoA-I or class A peptides.

[7] = Stability of peptide lipid complex; type: physicochemical; details: compared to 18A-Ala-18A and 18A-18A
From the text: 1. The tandem repeating class A amphipathic helix linked by a proline forms an optimal arrangement for lipid association.
as §1

[8] = tested on: HIV-I Gp4l-induced cell fusion; test: HIV-I Gp41-induced cell fusion; type: cell-based
neutrophil activation = test: Neutrophil activation; type: cell-based
[9] = BSA-induced lysis of fatty acid-containing vesicles
[10] = tested on: human placental lactogen synthesis; test: Stimulation of human placental lactogen synthesis; type: cell-based
cholesterol-loaded cells = test: Efflux of phospholipid and cellular cholesterol from cholesterol-loaded cells; type: cell-based
From the text: 4) The amphipathic helical peptide 18A-Pro-18A mimics HDL in clearing cellular cholesterol. The removal of cholesterol from peripheral cells by HDL is thought to initiate the process of reverse cholesterol transport. HDL is capable of stimulating the net release of cholesterol from cells. This process thus inhibits the formation of foam cells, the hallmark of atherosclerosis.

[11] = molecular target: T1, HDL receptor on rat adrenal cells (Rattus norvegicus, UniProt P97943); test: Competition with HDL for binding to rat adrenal cells
T1 construct: endogenous in cells; host or cells: rat adrenal cells
T1 sequence (P97943 1-509): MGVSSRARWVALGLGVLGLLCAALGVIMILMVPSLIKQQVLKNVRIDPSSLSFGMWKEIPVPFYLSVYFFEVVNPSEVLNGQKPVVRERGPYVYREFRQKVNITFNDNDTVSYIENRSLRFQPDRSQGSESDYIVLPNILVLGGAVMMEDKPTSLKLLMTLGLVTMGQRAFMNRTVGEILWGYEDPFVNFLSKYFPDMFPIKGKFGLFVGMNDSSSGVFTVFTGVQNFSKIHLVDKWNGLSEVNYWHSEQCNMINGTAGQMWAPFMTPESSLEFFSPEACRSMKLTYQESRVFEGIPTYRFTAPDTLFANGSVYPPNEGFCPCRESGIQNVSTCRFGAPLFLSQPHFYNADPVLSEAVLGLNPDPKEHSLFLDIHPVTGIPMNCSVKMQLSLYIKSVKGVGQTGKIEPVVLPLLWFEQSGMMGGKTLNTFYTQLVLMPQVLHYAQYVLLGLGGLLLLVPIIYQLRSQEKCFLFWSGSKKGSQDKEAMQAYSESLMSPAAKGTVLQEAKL
From the text: 5) The amphipathic helical peptide 18A-Pro-18A competes with HDL for binding to rat adrenal cells. Recently, it has been shown that HDL delivers cholesterol to the cells through class B scavenger receptor SRBI. This receptor binds HDL with high affinity and is primarily expressed in the liver and in nonplacental steroidogenic tissues.

[12] = Turnover (clearance curves) in rats; details: 18A-Pro-18A versus human apo A-I
[13] = rat, in vivo

Ac-DWLKAFYDKVFEKFKEFF-NH2 [5F, Ac-Asp-Trp-Leu-Lys-Ala-Phe-Tyr-Asp-Lys-Val-Phe-Glu-Lys-Phe-Lys-Glu-Phe-Phe-NH2]
aortal lesions ([1]; listed as SEQ No. 2): effective | aortal lesions ([1]; listed as modified 18A): virtually no lesion | VLDL-density particles in cholesterol profile compared to control animals ([1]; after sixteen weeks, IP, normal diet): decreased considerably | Total cholesterol ([2]; high fat diet, 50 μg/animal/day for 16 weeks, individual mice (Table III)): 156 and 161 and 182 | levels of plasma cholesterol ([2]; peptide injections 50 μg/animal/day for 16 weeks): markedly decreases

DEPDWLKAFYDKVAEKLKEAFPDWLKAFYDKVAEKLKEAF [Asp-Glu-Pro-18A-Pro-18A]
amount of peptide in the plasma [3]: approximately 20 μg/ml

DWLKAFYDKVAEKLKEAFPDWLKAFYDKVAEKLKEAF [18A-Pro-18A, class A amphipathic helical peptide 18A as head-to-tail dimer with a proline incorporated]
amount of the injected dosage present in the blood [4]: approximately 1 mg | Total plasma cpm as a percent of the injected cpm [4]: 25.5% | presence of the radiolabel in isolated lipoprotein fractions (FPLC) [4]: exclusively in HDL | form of radioactivity in the plasma (TCA precipitation and FPLC analysis) [4]: present in the intact peptide/protein | antibody to the peptide ([5]; IP every day for sixteen weeks): no antibody was detected | toxicity (mortality compared with saline group) ([5]; IP every day for sixteen weeks, high fat diet): no toxicity | foam cells in cross sections from the aorta ([5]; IP over 16 weeks, high fat diet, FIG. 1C): no foam cells can be seen | lipid accumulation in aortal cross sections compared to the control group ([5]; IP sixteen weeks, high fat diet, Oil Red O): less lipid accumulation | Total cholesterol ([5]; mice on high fat diet and peptide administered, individual mice (Table I)): 156 mg/dL and 161 mg/dL and 182 mg/dL | bilayer stabilizing property [6]: most bilayer stabilizing property | stability of complex [7]: most stable complex | effectiveness in HIV-I Gp4l-induced cell fusion [8]: most effective peptide | effectiveness in neutrophil activation (neutrophil activation): most effective peptide | effectiveness in BSA-induced lysis of fatty acid-containing vesicles [9]: most effective peptide | effectiveness in stimulating human placental lactogen synthesis [10]: most effective peptide | efflux of phospholipid and cellular cholesterol (cholesterol-loaded cells): effectively effluxes | competition with HDL for binding [11]: competes | clearance curves [12]: virtually superimposable

human apo A-I: human apolipoprotein A-I, protein component of HDL, used as comparator
amount of the injected dosage present in the blood [4]: approximately 1 mg | Total plasma cpm as a percent of the injected cpm [4]: 32% | presence of the radiolabel in isolated lipoprotein fractions (FPLC) [4]: exclusively in HDL | form of radioactivity in the plasma (TCA precipitation and FPLC analysis) [4]: present in the intact peptide/protein | clearance curves [13]: virtually superimposable
